From patent US20150284450A1, “COMBINATION THERAPIES USING ANTI-PSEUDOMONAS PSL AND PCRV BINDING MOLECULES” (priority 2012, published 2015) come the findings set out here.

The target of assay [1] is rPcrV protein (recombinant Pseudomonas PcrV) (Pseudomonas aeruginosa). As to the kind of experiment: SPR on Bio-Rad ProteOn XPR36; antibody captured on GLC chip with anti-human IgG, rPcrV injected at multiple concentrations.
Assay [2] has the same target. Briefly: SPR on Bio-Rad ProteOn XPR36; antibody captured on GLC chip with anti-human IgG, rPcrV injected at multiple concentrations [table].
Assay [3] shares this target. Briefly: Bio-Rad ProteOn XPR36; antibody captured by anti-human IgG on GLC chip, rPcrV injected.

Numbering of substitutions follows the chain as printed.

B1: V2L2-germlined mAb (V2L2-GL) (antibody, V domains shown)
VH: EVQLLESGGGLVQPGGSLRLSCAASGFTFSSYAMNWVRQAPGKGLEWVSAITISGITAYYTDSVKGRFTISRDNSKNTLYLQMNSLRAEDTAVYYCAKEEFLPGTHYYYGMDVWGQGTTVTVSS
VL: AIQMTQSPSSLSASVGDRVTITCRASQGIRNDLGWYQQKPGKAPKLVIYSASTLQSGVPSRFSGSGSGTDFTLSISSLQPDDFATYYCLQDYNYPWTFGQGTKVEIK
For B1, in assay [1], the dissociation constant (Kd) was 0.143 nM, the koff came out at 0.000116 s⁻¹ and the association rate constant (kon) came to 808000 M⁻¹ s⁻¹. In addition, in assay [2], the Kd was found to be 0.143 nM, the koff was 0.000116 s⁻¹ and the kon was determined as 808000 M⁻¹ s⁻¹.

B2: V2L2-MD (germlined lead optimized V2L2) (antibody, V domains shown)
VH: B1 VH with I53M, S63D
VL: B1 VL with V47L, S74T, D81E
Consider B2, for which, in assay [3], the fold increase in Kd over V2L2-GL lay within 2 to 3 fold. Further, in assay [1], the Kd stood at 0.0456 nM, the koff amounted to 4.03e-05 s⁻¹ and the kon stood at 884000 M⁻¹ s⁻¹. Moreover, in assay [2], the Kd came out at 0.046 nM, the koff was determined as 4.03e-05 s⁻¹ and the kon was 884000 M⁻¹ s⁻¹.

Broadly, the Kd is the constant that tells how readily two partners part at equilibrium. What is called koff is a measure of how fast the partners let go of each other. Usually kon stands for a measure of how fast the partners come together.
